For 97 variants, protein stability index results are on record in the supplement of paper PMC10567573.

B1: ZNF8 (parent)
chain: VHVIGVEEPSVGASMLFDIREST
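Further: lentivirally expressed fusions sorted by FACS into six bins by GFP to DsRed ratio, PSI derived from sequencing read proportions per bin multiplied by bin number.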

The variants in the data set derive from B1. Description: protein stability index of a GFP-peptide fusion (GPS, HEK-293T) (PSI 1-6); higher = more stable. The settings on record: c terminus: native.
On to VHVIGVEEPCVGASMLFDIREST [S10C], for which the protein stability index was found to be 1.85.

As to VHVIGVEEPHVGASMLFDIREST [S10H], the protein stability index worked out at 2.1.

Take VHVIGVEEPSVGQSMLFDIREST [A13Q]: the protein stability index amounted to 1.98.

On to VHVIGVEEPSVGHSMLFDIREST [A13H], for which the protein stability index came to 1.95.

Turning to VHVIGVEEPSVGCSMLFDIREST [A13C], the protein stability index worked out at 1.34.

Turning to VHVIGVEEPSVGGSMLFDIREST [A13G], the protein stability index turned out to be 2.74.

Regarding VHVIGVEEPSVGRSMLFDIREST [A13R], the protein stability index turned out to be 1.97.

For VHVIGVEEPSVGFSMLFDIREST [A13F], the protein stability index was 2.8.

VHVIGVEEPSVGMSMLFDIREST [A13M]: the protein stability index came out at 1.57.

In the case of VHVIGVEEPSVGNSMLFDIREST [A13N], the protein stability index was found to be 2.31.

As for VHVIGVEEPSVGPSMLFDIREST [A13P], the protein stability index worked out at 2.51.

Take VHVIGVEEPSVGVSMLFDIREST [A13V]: the protein stability index worked out at 1.87.

With VHVIGVEEPSVGISMLFDIREST [A13I], the protein stability index came out at 2.78.

For the variant VHVIGVEEPSVGDSMLFDIREST [A13D], the protein stability index turned out to be 2.69.

Regarding VHVIGVEEPSVGWSMLFDIREST [A13W], the protein stability index amounted to 3.12.

For the variant VHVIGVEEPSVGKSMLFDIREST [A13K], the protein stability index was 2.2.

Consider VHVIGVEEPSVGESMLFDIREST [A13E], for which the protein stability index turned out to be 2.61.

With VHVIGVEEPSVGTSMLFDIREST [A13T], the protein stability index is 1.93.

For the variant VHVIGVEEPSVGLSMLFDIREST [A13L], the protein stability index turned out to be 2.41.

Take VHVIGVEEPSVGYSMLFDIREST [A13Y]: the protein stability index was determined as 1.66.

As to VHVIGVEEPSVGSSMLFDIREST [A13S], the protein stability index came to 1.96.

Take VHVIGVEIPSVGASMLFDIREST [E8I]: the protein stability index worked out at 4.45.

For the variant VHVIGVEQPSVGASMLFDIREST [E8Q], the protein stability index came to 1.78.

On to VHVIGVEFPSVGASMLFDIREST [E8F], for which the protein stability index was determined as 2.49.

Consider VHVIGVERPSVGASMLFDIREST [E8R], for which the protein stability index was 1.89.

With VHVIGVENPSVGASMLFDIREST [E8N], the protein stability index was determined as 1.48.

As to VHVIGVEGPSVGASMLFDIREST [E8G], the protein stability index came to 2.18.

Turning to VHVIGVETPSVGASMLFDIREST [E8T], the protein stability index was 1.73.

As to VHVIGVEYPSVGASMLFDIREST [E8Y], the protein stability index was 2.87.

Regarding VHVIGVEDPSVGASMLFDIREST [E8D], the protein stability index turned out to be 1.69.

As for VHVIGVEPPSVGASMLFDIREST [E8P], the protein stability index is 1.75.

On to VHVIGVESPSVGASMLFDIREST [E8S], for which the protein stability index came to 2.09.

VHVIGVELPSVGASMLFDIREST [E8L]: the protein stability index was 2.75.

With VHVIGVEWPSVGASMLFDIREST [E8W], the protein stability index was determined as 4.73.

For VHVIGVECPSVGASMLFDIREST [E8C], the protein stability index worked out at 3.48.

In the case of VHVIGVEKPSVGASMLFDIREST [E8K], the protein stability index is 2.11.

On to VHVIGVEMPSVGASMLFDIREST [E8M], for which the protein stability index came out at 1.95.

For the variant VHVIGVEHPSVGASMLFDIREST [E8H], the protein stability index was found to be 2.08.

Regarding VHVIGVEAPSVGASMLFDIREST [E8A], the protein stability index stood at 2.25.

On to VHVIGVEVPSVGASMLFDIREST [E8V], for which the protein stability index came to 2.45.

VHVIGVEEPSVGACMLFDIREST [S14C]: the protein stability index was 1.54.

Consider VHVIGVEEPSVGAYMLFDIREST [S14Y], for which the protein stability index was found to be 2.78.

On to VHVIGVEEPSVGAWMLFDIREST [S14W], for which the protein stability index came out at 3.13.

Take VHVIGVEEPSVGAIMLFDIREST [S14I]: the protein stability index stood at 3.13.

As to VHVIGVEEPSVGADMLFDIREST [S14D], the protein stability index is 2.62.

As for VHVIGVEEPSVGAHMLFDIREST [S14H], the protein stability index came to 1.95.

As to VHVIGVEEPSVGATMLFDIREST [S14T], the protein stability index was 2.26.

In the case of VHVIGVEEPSVGAKMLFDIREST [S14K], the protein stability index was 2.

For the variant VHVIGVEEPSVGAQMLFDIREST [S14Q], the protein stability index came out at 2.12.

Regarding VHVIGVEEPSVGANMLFDIREST [S14N], the protein stability index is 2.4.

Regarding VHVIGVEEPSVGAFMLFDIREST [S14F], the protein stability index came to 2.28.

With VHVIGVEEPSVGAMMLFDIREST [S14M], the protein stability index turned out to be 2.31.

As to VHVIGVEEPSVGAPMLFDIREST [S14P], the protein stability index is 2.63.

Take VHVIGVEEPSVGARMLFDIREST [S14R]: the protein stability index amounted to 1.9.

In the case of VHVIGVEEPSVGAGMLFDIREST [S14G], the protein stability index stood at 1.92.

Consider VHVIGVEEPSVGAAMLFDIREST [S14A], for which the protein stability index worked out at 1.86.

For the variant VHVIGVEEPSVGAEMLFDIREST [S14E], the protein stability index came to 2.28.

VHVIGVEEPSVGALMLFDIREST [S14L]: the protein stability index turned out to be 2.31.

With VHVIGVEEPSVGAVMLFDIREST [S14V], the protein stability index was 3.14.

Turning to VHVIGVVEPSVGASMLFDIREST [E7V], the protein stability index amounted to 2.84.

VHVIGVQEPSVGASMLFDIREST [E7Q]: the protein stability index came out at 1.55.

Turning to VHVIGVFEPSVGASMLFDIREST [E7F], the protein stability index was found to be 3.54.

For VHVIGVYEPSVGASMLFDIREST [E7Y], the protein stability index amounted to 2.91.

VHVIGVDEPSVGASMLFDIREST [E7D]: the protein stability index was found to be 1.86.

Take VHVIGVTEPSVGASMLFDIREST [E7T]: the protein stability index stood at 1.61.

On to VHVIGVHEPSVGASMLFDIREST [E7H], for which the protein stability index stood at 1.15.

Regarding VHVIGVAEPSVGASMLFDIREST [E7A], the protein stability index came out at 1.69.

In the case of VHVIGVIEPSVGASMLFDIREST [E7I], the protein stability index came to 1.7.

Take VHVIGVLEPSVGASMLFDIREST [E7L]: the protein stability index stood at 1.92.

For the variant VHVIGVPEPSVGASMLFDIREST [E7P], the protein stability index worked out at 2.2.

Turning to VHVIGVWEPSVGASMLFDIREST [E7W], the protein stability index stood at 3.4.

For the variant VHVIGVKEPSVGASMLFDIREST [E7K], the protein stability index came to 1.72.

Regarding VHVIGVGEPSVGASMLFDIREST [E7G], the protein stability index turned out to be 1.94.

On to VHVIGVREPSVGASMLFDIREST [E7R], for which the protein stability index came to 1.33.

With VHVIGVCEPSVGASMLFDIREST [E7C], the protein stability index was 1.81.

Turning to VHVIGVSEPSVGASMLFDIREST [E7S], the protein stability index worked out at 1.94.

On to VHVIGVMEPSVGASMLFDIREST [E7M], for which the protein stability index was 2.14.

Turning to VHVIGVNEPSVGASMLFDIREST [E7N], the protein stability index stood at 1.88.

VHVIGAEEPSVGASMLFDIREST [V6A]: the protein stability index is 2.52.

In the case of VHVIGEEEPSVGASMLFDIREST [V6E], the protein stability index came to 2.99.

For the variant VHVIGDEEPSVGASMLFDIREST [V6D], the protein stability index came out at 3.75.

With VHVIGHEEPSVGASMLFDIREST [V6H], the protein stability index came to 2.46.

VHVIGREEPSVGASMLFDIREST [V6R]: the protein stability index turned out to be 2.35.

For the variant VHVIGNEEPSVGASMLFDIREST [V6N], the protein stability index is 3.61.

As to VHVIGFEEPSVGASMLFDIREST [V6F], the protein stability index turned out to be 2.27.

For the variant VHVIGCEEPSVGASMLFDIREST [V6C], the protein stability index was 1.96.

In the case of VHVIGPEEPSVGASMLFDIREST [V6P], the protein stability index was determined as 1.82.

Consider VHVIGIEEPSVGASMLFDIREST [V6I], for which the protein stability index turned out to be 1.75.

As for VHVIGGEEPSVGASMLFDIREST [V6G], the protein stability index came out at 2.54.

Regarding VHVIGMEEPSVGASMLFDIREST [V6M], the protein stability index was determined as 1.76.

On to VHVIGSEEPSVGASMLFDIREST [V6S], for which the protein stability index was 2.75.

Regarding VHVIGWEEPSVGASMLFDIREST [V6W], the protein stability index turned out to be 1.76.

Turning to VHVIGLEEPSVGASMLFDIREST [V6L], the protein stability index turned out to be 2.25.

With VHVIGKEEPSVGASMLFDIREST [V6K], the protein stability index was found to be 2.61.

Take VHVIGTEEPSVGASMLFDIREST [V6T]: the protein stability index is 2.33.

Turning to VHVIGYEEPSVGASMLFDIREST [V6Y], the protein stability index turned out to be 1.9.

As for VHVIGQEEPSVGASMLFDIREST [V6Q], the protein stability index came to 2.64.
